For eleven molecules, Relative binding affinity, Binding affinity relative to Compound 1 (% of Compound 1) and Adjusted binding affinity results are on record in patent US20170298113A1 (TEL HASHOMER MEDICAL RESEARCH INFRASTRUCTURE AND SERVICES, published 2017).

*1 amine or outer side, *2 acyl side, *3 side chain or, on linkers, in order; H or OH if unused. Bridges are numbered along the chain shown (N, C = ends). Primed or numbered codes have the meaning given here. [ ]: non-standard residue; d: D form. N(2-mercaptoethyl)Gly = O=C(CN(CCS[*:3])[*:1])[*:2]; FITC′ = fluorescein isothiocyanate; Orn = NCCC[C@H](N)C(=O)O; Aib = CC(C)(N)C(=O)O; GABA = NCCCC(=O)O

For assay [1], the target named is human somatostatin receptor subtype SSTR1 (human) (UniProt P30872). Briefly: FACS, transfected HEK-293 cells.
human somatostatin receptor subtype SSTR1 (human), sequence (P30872 whole entry): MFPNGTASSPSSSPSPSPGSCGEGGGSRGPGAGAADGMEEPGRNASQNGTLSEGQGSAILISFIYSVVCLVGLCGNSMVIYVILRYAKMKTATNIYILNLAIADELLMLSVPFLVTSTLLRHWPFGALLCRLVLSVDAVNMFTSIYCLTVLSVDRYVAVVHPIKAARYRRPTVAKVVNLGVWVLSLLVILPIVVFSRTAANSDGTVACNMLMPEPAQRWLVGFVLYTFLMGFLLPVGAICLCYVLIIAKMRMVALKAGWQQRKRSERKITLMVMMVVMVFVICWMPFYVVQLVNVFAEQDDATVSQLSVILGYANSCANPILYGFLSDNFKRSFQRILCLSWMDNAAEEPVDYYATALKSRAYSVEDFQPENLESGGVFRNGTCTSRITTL
The target of assay [2] is human somatostatin receptor subtype SSTR4 (human) (UniProt P31391). The assay is described as follows: FACS, transfected HEK-293 cells.
human somatostatin receptor subtype SSTR4 (human), sequence (P31391 whole entry): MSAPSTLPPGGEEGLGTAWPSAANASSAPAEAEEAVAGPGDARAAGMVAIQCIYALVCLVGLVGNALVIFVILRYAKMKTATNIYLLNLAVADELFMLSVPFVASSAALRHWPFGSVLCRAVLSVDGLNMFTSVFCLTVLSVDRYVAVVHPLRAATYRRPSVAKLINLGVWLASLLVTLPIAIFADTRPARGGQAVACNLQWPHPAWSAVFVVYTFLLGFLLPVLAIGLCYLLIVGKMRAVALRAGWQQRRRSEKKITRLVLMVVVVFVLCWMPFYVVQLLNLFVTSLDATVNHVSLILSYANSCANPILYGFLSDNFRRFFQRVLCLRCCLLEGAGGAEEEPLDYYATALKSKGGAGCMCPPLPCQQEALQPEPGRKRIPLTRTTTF
The target in assay [3] is human somatostatin receptor subtype SSTR3 (human) (UniProt P32745). Briefly: FACS, transfected HEK-293 cells.
human somatostatin receptor subtype SSTR3 (human), sequence (P32745 whole entry): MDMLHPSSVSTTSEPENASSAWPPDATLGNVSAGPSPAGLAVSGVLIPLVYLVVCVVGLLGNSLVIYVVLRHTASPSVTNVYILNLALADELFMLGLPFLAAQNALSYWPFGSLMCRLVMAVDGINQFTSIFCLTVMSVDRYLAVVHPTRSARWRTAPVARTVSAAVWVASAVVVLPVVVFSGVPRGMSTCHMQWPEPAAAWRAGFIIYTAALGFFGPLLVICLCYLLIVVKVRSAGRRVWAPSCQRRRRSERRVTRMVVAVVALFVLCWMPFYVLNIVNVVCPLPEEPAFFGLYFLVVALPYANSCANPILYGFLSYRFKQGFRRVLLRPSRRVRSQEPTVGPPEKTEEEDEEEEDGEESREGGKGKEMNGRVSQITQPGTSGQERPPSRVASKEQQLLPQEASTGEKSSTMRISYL
Assay [4] has as its target human somatostatin receptor subtype SSTR5 (human) (UniProt P35346). The assay is described as follows: FACS, transfected HEK-293 cells.
Assay [5] deals with human somatostatin receptor subtype SSTR1 (human) (UniProt P30872). Briefly: FACS, transfected HEK-293 cells; normalised to Compound 1.
The target of assay [6] is human somatostatin receptor subtype SSTR2 (human) (UniProt P30874). The description is as above.
human somatostatin receptor subtype SSTR2 (human), sequence (P30874 whole entry): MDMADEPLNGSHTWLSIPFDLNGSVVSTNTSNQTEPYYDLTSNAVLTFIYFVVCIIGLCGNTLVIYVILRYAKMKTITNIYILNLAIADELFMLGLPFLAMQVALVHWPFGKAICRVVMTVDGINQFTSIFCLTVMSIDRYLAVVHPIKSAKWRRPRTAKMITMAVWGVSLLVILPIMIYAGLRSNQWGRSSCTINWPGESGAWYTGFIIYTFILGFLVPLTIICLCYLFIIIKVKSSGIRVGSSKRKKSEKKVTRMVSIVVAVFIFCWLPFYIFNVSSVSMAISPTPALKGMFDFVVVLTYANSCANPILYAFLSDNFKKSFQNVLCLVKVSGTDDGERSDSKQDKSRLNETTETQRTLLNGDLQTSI
In assay [7] the target is human somatostatin receptor subtype SSTR4 (human) (UniProt P31391). The assay is described as above.
Assay [8] deals with human somatostatin receptor subtype SSTR3 (human) (UniProt P32745). The assay is described as above.
In assay [9] the target is human somatostatin receptor subtype SSTR5 (human) (UniProt P35346). The assay is described as above.
human somatostatin receptor subtype SSTR5 (human), sequence (P35346 whole entry): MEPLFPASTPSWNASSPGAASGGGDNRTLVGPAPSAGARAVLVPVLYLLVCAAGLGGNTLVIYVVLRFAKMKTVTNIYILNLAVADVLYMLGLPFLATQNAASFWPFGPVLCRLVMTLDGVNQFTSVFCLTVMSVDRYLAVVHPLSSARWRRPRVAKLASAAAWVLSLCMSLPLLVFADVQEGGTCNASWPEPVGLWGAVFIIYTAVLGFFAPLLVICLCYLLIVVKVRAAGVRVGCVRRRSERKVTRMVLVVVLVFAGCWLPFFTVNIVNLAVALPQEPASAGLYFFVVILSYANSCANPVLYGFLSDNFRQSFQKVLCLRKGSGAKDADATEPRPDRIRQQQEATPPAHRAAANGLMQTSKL
The target of assay [10] is human somatostatin receptor subtype SSTR1 (human) (UniProt P30872). The assay is described as follows: FACS, transfected HEK-293 cells; row normalised to highest.
Assay [11] deals with human somatostatin receptor subtype SSTR2 (human) (UniProt P30874). The description is as above.
For assay [12], the target named is human somatostatin receptor subtype SSTR4 (human) (UniProt P31391). The description is as above.
The target in assay [13] is human somatostatin receptor subtype SSTR3 (human) (UniProt P32745). The assay is described as above.
The target of assay [14] is human somatostatin receptor subtype SSTR5 (human) (UniProt P35346). The description is as above.
In assay [15] the target is human somatostatin receptor subtype SSTR2 (human) (UniProt P30874). The assay is described as follows: FACS, transfected HEK-293 cells.

B1: Compound 13 (peptide)
peptide: {FITC′-GABA}-[dF]CFW[dW][Aib]TF[N(2-mercaptoethyl)Gly]-NH2
modifications: disulfide 2-9
Regarding B1, the Relative binding affinity in assay [1] is 1%; in [2], 4%; in assay [3], 6%; in assay [4] it was 9%. For the same molecule, the Binding affinity relative to Compound 1 (% of Compound 1) in assay [5] stood at 33; in assay [6], 0; in assay [7] it was 18; in [8] it was 35; in assay [9] it was 32. Also, the Adjusted binding affinity is 0.11 in [10]; 0 in assay [11]; 0.44 in [12]; 0.67 in assay [13]; 1 in [14].

B2: Compound 5 (peptide)
peptide: {FITC′-GABA}-[dF]RCF[dW][Orn]TF[N(2-mercaptoethyl)Gly]-NH2
modifications: disulfide 3-9
For B2, the figures for the Relative binding affinity in assay [15], in assay [2] and in assay [3] were 1%, 1% and 3%, respectively. Moreover, the Binding affinity relative to Compound 1 (% of Compound 1) was 0 in assay [5]; 15 in [6]; 4 in assay [7]; 18 in assay [8]; 0 in assay [9]. The Adjusted binding affinity amounted to 0 in [10]; 0.33 in assay [11]; 0.33 in assay [12]; 1 in assay [13]; 0 in assay [14].

B3: Compound 7 (peptide)
peptide: {FITC′-GABA}-[dF]CY[dW][Orn]TF[N(2-mercaptoethyl)Gly]-NH2
modifications: disulfide 2-8
Regarding B3, the Relative binding affinity in assay [15] amounted to 1%; in assay [2], 1.5%; in [3], 2%; in [4] it was 1%. For the same molecule, the Binding affinity relative to Compound 1 (% of Compound 1) in [5] came to 0; in [6] it was 15; in assay [7], 7; in assay [8], 12; in assay [9] it was 4. Also, the Adjusted binding affinity in assay [10] was 0; in assay [11] it was 0.5; in [12], 0.75; in assay [13], 1; in [14], 0.5.

B4: Compound 8 (peptide)
peptide: {FITC′-GABA}-[dF]CRFF[dW]KTF[N(2-mercaptoethyl)Gly]-NH2
modifications: disulfide 2-10
On to B4, for which the Relative binding affinity in assay [1] is 2.6%; in assay [15] it was 4.5%; in assay [2], 31.5%; in assay [3] it was 11.5%; in [4], 27.5%. The Binding affinity relative to Compound 1 (% of Compound 1) is 78 in assay [5]; 69 in assay [6]; 140 in [7]; 68 in assay [8]; 96 in [9]. Further, the Adjusted binding affinity was 0.08 in assay [10]; 0.14 in [11]; 1 in assay [12]; 0.37 in assay [13]; 0.87 in assay [14].

B5: Compound 6 (peptide)
peptide: {FITC′-GABA}-[dF]RCY[dW]KTF[N(2-mercaptoethyl)Gly]-NH2
modifications: disulfide 3-9
For B5, the Relative binding affinity came to 1.5% in [15], 1.5% in assay [2], 22.5% in [3] and 0.5% in [4]. Further, the Binding affinity relative to Compound 1 (% of Compound 1) in [5] came to 0; in assay [6], 23; in assay [7], 7; in assay [8] it was 132; in assay [9], 2. In addition, the Adjusted binding affinity in [10] turned out to be 0; in [11] it was 0.07; in [12], 0.07; in assay [13] it was 1; in assay [14], 0.02.

B6: Compound 11 (peptide)
peptide: XXFWXKTFX
modifications: FITC-GABA-DPhe-HCys*-Phe-Trp-DTrp-Lys-Thr-Phe-GlyS2*-NH2 (* = S-S bond; HCys = homocysteine; GlyS2 = N-thioethyl glycine; C-terminal amide)
Take B6: the Relative binding affinity in assay [2] came to 29%; in [4] it was 41%. Also, the Binding affinity relative to Compound 1 (% of Compound 1) turned out to be 129 in assay [7] and 144 in [9]. The Adjusted binding affinity in assay [12] stood at 0.71; in [14], 1.

B7: Compound 3 (peptide)
peptide: XCFWXXTFX
modifications: FITC-GABA-DPhe-Cys*-Phe-Trp-DTrp-Orn-Thr-Phe-GlyS2*-NH2 (* = S-S bond; GlyS2 = N-thioethyl glycine; Orn = ornithine; C-terminal amide)
Take B7: the Relative binding affinity in assay [1] was 3.6%; in assay [15] it was 4.3%; in [2], 13.3%; in assay [3], 15.7%; in assay [4], 9.3%. For the same molecule, the Binding affinity relative to Compound 1 (% of Compound 1) in assay [5] came to 120; in [6], 66; in [7], 59; in assay [8], 92; in assay [9], 33. The Adjusted binding affinity in assay [10] was 0.23; in assay [11], 0.27; in assay [12], 0.85; in assay [13], 1; in [14], 0.59.

B8: Compound 14 (peptide)
peptide: XCFWXXTFX
modifications: FITC-GABA-DPhe-Cys*-Phe-Trp-DTrp-LysAc-Thr-Phe-GlyS2*-NH2 (* = S-S bond; LysAc = acetyllysine; GlyS2 = N-thioethyl glycine; C-terminal amide)
Turning to B8, the Relative binding affinity in assay [2] is 3%; in assay [4], 2%. The Binding affinity relative to Compound 1 (% of Compound 1) in assay [7] was 13; in [9], 7. The Adjusted binding affinity in assay [12] was 1; in [14], 0.67.

B9: Compound 2 (peptide)
peptide: {FITC′-GABA}-[dF]RCF[dW]KTF[N(2-mercaptoethyl)Gly]-NH2
modifications: disulfide 3-9
B9: the Relative binding affinity in [1] stood at 5%; in assay [15] it was 5%; in [2] it was 4%; in assay [3], 4%; in assay [4], 5%. Moreover, the Binding affinity relative to Compound 1 (% of Compound 1) is 167 in assay [5]; 77 in assay [6]; 18 in [7]; 24 in [8]; 18 in assay [9]. The Adjusted binding affinity came to 1 in [10]; 1 in [11]; 0.8 in assay [12]; 0.8 in assay [13]; 1 in assay [14].

B10: Compound 16 (peptide)
peptide: XCFWXXTFX
modifications: FITC-GABA-DPhe-Cys*-Phe-Trp-DTrp-HomoLys-Thr-Phe-GlyS2*-NH2 (* = S-S bond; HomoLys = homolysine; GlyS2 = N-thioethyl glycine; C-terminal amide)
Take B10: the Relative binding affinity was 2.5% in assay [15], 4.5% in assay [2], 12% in assay [3] and 7% in assay [4]. For the same molecule, the Binding affinity relative to Compound 1 (% of Compound 1) in [5] stood at 0; in assay [6] it was 38; in [7], 20; in [8] it was 71; in assay [9], 25. Besides, the Adjusted binding affinity was 0 in assay [10]; 0.21 in assay [11]; 0.38 in [12]; 1 in assay [13]; 0.58 in [14].

B11: Compound 1 (peptide)
peptide: XCFWXKTFX
modifications: FITC-GABA-DPhe-Cys*-Phe-Trp-DTrp-Lys-Thr-Phe-GlyS2*-NH2 (* = S-S bond; GlyS2 = N-thioethyl glycine; FITC-GABA on the N-terminal amine; C-terminal amide)
As for B11, the Relative binding affinity in [1] is 3%; in [15], 6.5%; in [2], 22.5%; in assay [3] it was 17%; in assay [4], 28.5%. For the same molecule, the Binding affinity relative to Compound 1 (% of Compound 1) in assay [5], in assay [6], in assay [7], in assay [8] and in [9] was 100 each time. Also, the Adjusted binding affinity was determined as 0.11 in assay [10]; 0.23 in assay [11]; 0.79 in [12]; 0.6 in [13]; 1 in [14].
